# Data reported in patent publication US11406709B2, “Therapeutic and research application of PDCL3” (TRUSTEES OF BOSTON UNIVERSITY, priority 2014, dated 2022).
# B1: PDCL3: 239-amino acid human phosducin-like protein 3, SEQ ID NO: 1; expressed from cDNA in cells (protein, listed as Homo sapiens)
# chain: MQDPNADTEWNDILRKKGILPPKESLKELEEEAEEEQRILQQSVVKTYEDMTLEELEDHEDEFNEEDERAIEMYRRRRLAEWKATKLKNKFGEVLEISGKDYVQEVTKAGEGLWVILHLYKQGIPLCALINQHLSGLARKFPDVKFIKAISTTCIPNYPDRNLPTIFVYLEGDIKAQFIGPLVFGGMNLTRDELEWKLSESGAIMTDLEENPKKPIEDVLLSSVRRSVLMKRDSDSEGD
# modifications: Myc tag in some forms
# notes: expressed from cDNA in cells
# B2: acetylation resistant HA-tagged PDCL3: Mutant PDCL3 generated by removing the first methionine and adding HA tag (protein)
# chain: QDPNADTEWNDILRKKGILPPKESLKELEEEAEEEQRILQQSVVKTYEDMTLEELEDHEDEFNEEDERAIEMYRRRRLAEWKATKLKNKFGEVLEISGKDYVQEVTKAGEGLWVILHLYKQGIPLCALINQHLSGLARKFPDVKFIKAISTTCIPNYPDRNLPTIFVYLEGDIKAQFIGPLVFGGMNLTRDELEWKLSESGAIMTDLEENPKKPIEDVLLSSVRRSVLMKRDSDSEGD
# modifications: left off: small tags and cut ends
# How the values were obtained:
# PDCL3 with VEGFR-2 = assay: Brefeldin A treatment, co-immunoprecipitation of PDCL3 with VEGFR-2; assay type: cell-based; settings: HEK-293 cells
# Protocol: FIG. 7A. Cells expressing VEGFR-2 alone or together were subjected cell surface biotinylation. Non-biotinylated and biotinylated fractions were immunoprecipitated with anti-VEGFR-2 antibody and blotted for PDCL3 using anti-c-Myc antibody. Non-biotinylated and biotinylated fractions also were blotted for VEGFR-2 and PARP as a control. FIG. 7B. HEK-293 cells were co-transfected with Myc-tagged PDCL3 and VEGFR-2 and after 48 hours they were treated with BFA or control vehicle. Cells were lysed and whole cell lysates were either blotted for VEGFR-2 or were subjected co-immunoprecipitation using anti-c-Myc antibody followed by immunoblotting with anti-VEGFR-2. FIG. 7C. HEK-293 cells were co-transfected with Myc-tagged PDCL3 and VEGFR-2 and after 48 hours cells were fixed and subjected to IF staining as described in Materials and Method section. Cells were stained with anti-PDCL3, anti-c-myc antibodies (FIGS. 7C-7D) or endoplasmic reticulum specific dye FIG. 7E.
# PDCL3 and VEGFR-2 = assay: Chemical hypoxia, expression of PDCL3 and VEGFR-2; assay type: cell-based
# From the text: To test whether, increased expression of VEGFR-2 in response to hypoxia is linked to induction of PDCL3 expression, we silenced expression of PDCL3 by siRNA and analyzed measured VEGFR-2 levels.
# zebrafish embryos = assay: Zebrafish angiogenesis assay; assay type: in vivo, zebrafish (Danio rerio); settings: microinjection into embryos, 28 hpf
# Protocol: The vectors were linearized with Not I restriction enzyme, treated with Proteinase K (SIGMA) and extracted with phenol. Linearized plasmid DNA (1 μg/μl) in RNAse-free water was used for in vitro capped mRNA synthesis using the MMESSAGE MMACHINE® SP6 kit (AMBION) according to manufacturer instructions and RNA subsequently was used to inject into zebrafish embryos.
# Fli-eGFP-transgenic adult male and female zebrafish (Danio rerio) were housed in […] light-dark cycle at a temperature of (26.5° C.) and a pH of (7.0-7.4) in a controlled multi-tank recirculating water system (Aquatic Habitats, Apopka, Fla.). Fish were fed twice daily with live brine shrimp (Brine Shrimp Direct, Ogden, Utah) and flake food (TetraMin; Tetra, Blacksburg, Va.). A glass capillary needle attached to a Femtojet injector (EPPENDORF) was used for injecting RNA (10 or 5 ng/μl in approximately 10 pl) into 1- or 2-cell-stage embryos. The embryos were grown at 28° C. for 3 days. The embryos were examined after 28 or 50 hpf using Zeiss immunofluorescence microscope. The images of fish under same setting were obtained for 10 fish per group at every experiment and analyzed for the length of the tail vessels using IMAGE-PRO® software and for the tail vessel plexus fluorescent intensity using Image J software.
# PAE cells = assay: Capillary tube formation on matrigel; assay type: cell-based, porcine; settings: over-expression with VEGFR-2 in endothelial cells, 12 hours
# Protocol: (§1) FIG. 6A. Cell lysates from HEK-293 cells co-expressing PDCL3 with VEGFR-2 or HA-PDCL3 with VEGFR-2 were immunoprecipitated with VEGFR-2 and immunoblotted for PDCL3 using anti-Myc antibody. Whole cell lysates was also blotted for VEGFR-2, PDCL3 and HSp70 as a loading control. Ubiquitination of VEGFR-2 was determined by immunoprecipitation with anti-VEGFR-2 followed by immunoblotting with anti-ubiquitin antibody. FIG. 6B. The graph is quantification of the ubiquitination blot of VEGFR-2. FIG. 6C. Angiogenic potential of wild-type and HA-tagged methionine mutant PDCL3 expressed in PAE cells is shown. PAE cells engineered to express VEGFR-2 alone, VEGFR-2 with wild-type PDCL3 or VEGFR-2 with HA-tagged methionine mutant PDCL3. Cells were plated on matrigel and pictures were taken after 12 hours. Image J was used to quantify tube formation. Graph is representative of three independent experiments.
# VEGFR-2 [1] = assay: Protein aggregation assay (PSA dye), thermo-induced aggregation; assay type: biochemical; settings: immunoprecipitated VEGFR-2, 45° C.
# Protocol: Aggregation of VEGFR-2 determined using PSA kit purchased from PROFOLDIN, Inc (Hudson, Mass.) and assay was performed according to manufacturer's guideline. […] When the PSA dye binds to the aggregate, it is immobilized and slows down the rotational movement and inducing the dye to fluoresce. In brief, VEGFR-2 immunoprecipitated from HEK-293 cells and eluded from the protein-sepharose beads. The eluded VEGFR-2 protein was incubated in the 45° C. in the presence or absence of purified GST-PDCL3 for various time points. The Fluorescence intensity was measured at […].
# [2] = test system: VEGFR-1, VEGFR-2 and CSF-1R; assay: Receptor expression in HEK-293 cells expressing PDCL3; assay type: cell-based
# Protocol: FIG. 1A. HEK-293 cells expressing VEGFR-2 were transfected with different concentrations of C-terminus Myc-tagged PDCL3. After 48 hours cells were lysed and whole cell lysates (WCL) were blotted for VEGFR-2, PDCL3 and Hsp70 for loading control. Quantification of premature (newly synthesized and partially glycosylated VEGFR-2 corresponding to lower molecular weight) and mature (fully glycosylated) forms of VEGFR-2 is shown. Mean results of three independent experiments are shown. *P=0.04 and […]. FIG. 1B. Human umbilical vein endothelial cells (HUVECs) were transfected with control siRNA or PDCL3-siRNA. After 48 hours cells serum-starved for overnight followed by stimulation with VEGF for 10 minutes. Cells were lysed and whole cell lysates were blotted for phospho-Y1054-VEGFR-2, total VEGFR-2, PDCL3 and Hsp70 for loading control. FIG. 1C. Thermo-induced aggregation of VEGFR-2 was measured using PSA dye as described in the materials and method section. FIG. 1D. In vitro transcription/translation of VEGFR-2 in the absence or presence of exogenous recombinant PDCL3 was performed as described in the materials and method section and schematic of the procedure is shown. FIG. 1E. In vitro translated VEGFR-2 protein in the absence or presence of exogenous recombinant PDCL3 was blotted for VEGFR-2. FIG. 1F. […]
# VEGFR-2 [3] = assay: Cycloheximide-chase / VEGF-induced downregulation of VEGFR-2; assay type: cell-based
# Protocol: FIG. 2A. Illustrated is the schematic of treatment of cells with cycloheximide (CHX) and VEGF. PAE cells co-expressing VEGFR-2 with empty vector (pMSCV) or PDCL3 were incubated with CHX for 90 minutes followed by stimulation with VEGF for indicated times. Whole cell lysates was blotted for VEGFR-2 and loading control protein, PLCγ1. FIG. 2B. Shown are the quantification of the half-life of mature VEGFR-2 and pre-mature VEGFR-2 based on the VEGFR-2 blot from the panel FIG. 2A. FIGS. 2C-2D. PAE cells co-expressing VEGFR-2 with empty vector (pMSCV) or PDCL3 were stimulated with VEGF for indicated times and whole cell lysates were processed as panel FIG. 2A.
# PAE cells expressing VEGFR-2 alone or together with PDCL3 were serum-starved for overnight followed by incubation of cells with serum-free DMEM medium containing cycloheximide (20 μg/ml, 90 min). Cells then were stimulated with VEGF for various times to downregulate cell surface VEGFR-2. Cells were lysed and whole cell lysates was blotted for VEGFR-2 using anti-VEGFR-2 antibody. For measuring half-life of PDCL3 and HA-tagged mutant PDCL3, cells were incubated with serum-free DMEM medium containing cycloheximide (20 μg/ml) for indicated times and cells were lysed and whole cell lysates was blotted for PDCL3.
# VEGFR-2 [4] = assay: Co-immunoprecipitation with VEGFR-2 and VEGFR-2 ubiquitination blot; assay type: cell-based; settings: HEK-293 cells co-expressing VEGFR-2
# Protocol: as §1
# Plasmids and siRNA: Human Phosducin like protein 3 cDNA (PDCL3 also called PHLP2A) (Clone #3344703, accession #BC001021) was purchased from OPEN BIOSYSTEMS and was cloned into expression vectors, pcDNA3.1/Myc-His(−) or retroviral pMSCV. Mutant PDCL3 was generated by removing the first methionine and adding HA tag and similarly was cloned into pcDNA3.1 and pMSCV vectors. […]
molecule,measurement,setting,value
C[C@H]1CCC/C=C/[C@@H]2C[C@H](O)C[C@H]2[C@H](O)/C=C/C(=O)O1 [Brefeldin A],binding of PDCL3 with VEGFR-2,PDCL3 with VEGFR-2,did not inhibit the binding of PDCL3 with VEGFR-2
[Cl][Co][Cl] [cobalt chloride],expression of PDCL3 and VEGFR-2,PDCL3 and VEGFR-2,similarly increased expression of PDCL3 and VEGFR-2
"pdcl3 morpholino: PDCL3 morpholino for zebrafish, 5′CGGTGTCTGCGTTTGGGTCCTGCAT3′ (SEQ ID NO: 10), Gene Tools (all phosphorodiamidate morpholino (PMO))",angiogenesis (intersegmental vessel formation),zebrafish embryos,significantly inhibited angiogenesis
B1,angiogenesis/capillary tube formation,PAE cells,increased angiogenesis/capillary tube formation
same,aggregation of VEGFR-2,VEGFR-2 [1],significantly reduced aggregation of VEGFR-2 in a time-dependent manner
same,"expression of VEGFR-1, VEGFR-2 and CSF-1R",[2],"markedly increased expression of VEGFR-1, VEGFR-2 and CSF-1R"
same,abundance of premature and mature forms of VEGFR-2,"[2]; different concentrations of Myc-tagged PDCL3, 48 hours",increases the abundance of premature and mature forms of VEGFR-2 in a dose-dependent manner
same,half-life of newly made VEGFR-2,VEGFR-2 [3]; PAE cells co-expressing VEGFR-2 with PDCL3,extends the half-life of newly made VEGFR-2
same,VEGF-induced downregulation of mature VEGFR-2,"VEGFR-2 [3]; PAE cells, absence of cycloheximide",markedly slower
B2,interaction with VEGFR-2,VEGFR-2 [4],interacted strongly with VEGFR-2 compared to wild-type PDCL3
same,ubiquitination of VEGFR-2,VEGFR-2 [4],prevented VEGFR-2 from ubiquitination
same,angiogenesis/capillary tube formation,PAE cells,more robust
